Positions count from the first letter of the chain named.
T1: MAGE-A8 peptide on HLA-A*02:01 (human)
T1 peptide: GLYDGREHSV

T2: MAGE-A4 peptide on HLA-A*02:01 (human)
T2 peptide: KVLEHVVRV

T3: MAGE-A4 peptide on HLA-A*02:01 (human)
T3 peptide: GVYDGREHTV

B1: PN41839 (TCR, V domains shown)
V domain 1: DAKTTQPPSMDCAEGRAANLPCNHSTISGNEYVYWYRQIHSQGPQYIIHGLKNNETNEMASLIITEDRKSSTLILPHATLRDTAVYYCIVYGGSQGNLIFGKGTKLSVKP
V domain 2: DAGVTQSPTHLIKTRGQQVTLRCSPKSGHDTVSWYQQALGQGPQFIFQYYEEEERQRGNFPDRFSGHQFPNYSSELNVNALLLGDSALYLCASSFSRVQPQHFGDGTRLSIL
notes: stained with anti-mouse TCR constant region H57-597; full-length chains on transfected CHO cells; also called TCR No. 34
B2: PN41539 (TCR, V domains shown)
V domain 1: AQKVTQAQTEISVVEKEDVTLDCVYETRDTTYYLFWYKQPPSGELVFLIRRNSFDEQNEISGRYSWNFQKSTSSFNFTITASQVVDSAVYFCALSEGDTGGFKTIFGAGTRLFVKA
V domain 2: NAGVTQTPKFRILKIGQSMTLQCAQDMNHNYMYWYRQDPGMGLKLIYYSVGAGITDKGEVPNGYNVSRSTTEYFPLRLELAAPSQTSVYFCASSYFPDRGLGNTIYFGEGSWLTVV
notes: stained with anti-mouse TCR constant region H57-597; full-length chains on transfected CHO cells; also called TCR No. 9
B3: PN41557 (TCR, V domains shown)
V domain 1: EDQVTQSPEALRLQEGESSSLNCSYTVSGLRGLFWYRQDPGKGPEFLFTLYSAGEEKEKERLKATLTKKESFLHITAPKPEDSATYLCAVQAVTGGGNKLTFGTGTQLKVEL
V domain 2: GAVVSQHPSWVICKSGTSVKIECRSLDFQATTMFWYRQFPKQSLMLMATSNEGSKATYEQGVEKDKFLINHASLTLSTLTVTSAHPEDSSFYICSASWDRDYGYTFGSGTRLTVV
notes: stained with anti-mouse TCR constant region H57-597; full-length chains on transfected CHO cells; also called TCR No. 11
B4: PN41516 (TCR, V domains shown)
V domain 1: TQLLEQSPQFLSIQEGENLTVYCNSSSVFSSLQWYRQEPGEGPVLLVTVVTGGEVKKLKRLTFQFGDARKDSSLHITAAQPGDTGLYLCAGERDSWGKFQFGAGTQVVVTP
V domain 2: NAGVTQTPKFRILKIGQSMTLQCAQDMNHNYMYWYRQDPGMGLKLIYYSVGAGITDKGEVPNGYNVSRSTTEYFPLRLELAAPSQTSVYFCASSFWTGGDEKLFFGSGTQLSVL
notes: stained with anti-mouse TCR constant region H57-597; full-length chains on transfected CHO cells; also called TCR No. 4
B5: PN41613 (TCR, V domains shown)
V domain 1: AQTVTQSQPEMSVQEAETVTLSCTYDTSESDYYLFWYKQPPSRQMILVIRQEAYKQQNATENRFSVNFQKAAKSFSLKISDSQLGDAAMYFCAYRSATGNQFYFGTGTSLTVIP
V domain 2: EAQVTQNPRYLITVTGKKLTVTCSQNMNHEYMSWYRQDPGLGLRQIYYSMNVEVTDKGDVPEGYKVSRKEKRNFPLILESPSPNQTSLYFCASSLLYSNQPQHFGDGTRLSIL
notes: stained with anti-mouse TCR constant region H57-597; full-length chains on transfected CHO cells; also called TCR No. 19
B6: PN41712 (TCR, V domains shown)
V domain 1: AQTVTQSQPEMSVQEAETVTLSCTYDTSENNYYLFWYKQPPSRQMILVIRQEAYKQQNATENRFSVNFQKAAKSFSLKISDSQLGDTAMYFCALNTGNQFYFGTGTSLTVIP
V domain 2: GAVVSQHPSWVICKSGTSVKIECRSLDFQATTMFWYRQFPKQSLMLMATSNEGSKATYEQGVEKDKFLINHASLTLSTLTVTSAHPEDSSFYICSAWDGFYGYTFGSGTRLTVV
notes: stained with anti-mouse TCR constant region H57-597; full-length chains on transfected CHO cells; also called TCR No. 27
B7: PN41748 (TCR, V domains shown)
V domain 1: SQELEQSQQSLIVQEGKNLTINCTSSKTLYGLYWYKQKYGEGLIFLMMLQKGGEEKSHEKITAKLDEKKQQSSLHITASQPSHAGIYLCGADMYSGGGADGLTFGKGTHLIIQP
V domain 2: B6 V domain 2
notes: stained with anti-mouse TCR constant region H57-597; full-length chains on transfected CHO cells; also called TCR No. 29
B8: PN41550 (TCR, V domains shown)
V domain 1: QKEVEQNSGPLSVPEGAIASLNCTYSDRGSQSFFWYRQYSGKSPELIMSIYSNGDKEDGRFTAQLNKASQYVSLLIRDSQPSDSATYLCAVNLSWGKFQFGAGTQVVVTP
V domain 2: DAGVTQSPTHLIKTRGQQVTLRCSPKSGHDTVSWYQQALGQGPQFIFQYYEEEERQRGNFPDRFSGHQFPNYSSELNVNALLLGDSALYLCASSLDRSTEAFFGQGTRLTVV
notes: stained with anti-mouse TCR constant region H57-597; full-length chains on transfected CHO cells; also called TCR No. 10
B9: PN45418 (TCR, V domains shown)
V domain 1: EDQVTQSPEALRLQEGESSSLNCSYTVSGLRGLFWYRQDPGKGPEFLFTLYSAGEEKEKERLKATLTKKESFLHITAPKPEDSATYLCAVQPSYSGAGSYQLTFGKGTKLSVIP
V domain 2: EAQVTQNPRYLITVTGKKLTVTCSQNMNHEYMSWYRQDPGLGLRQIYYSMNVEVTDKGDVPEGYKVSRKEKRNFPLILESPSPNQTSLYFCASSPGTGGFSPLHFGNGTRLTVT
notes: stained with anti-mouse TCR constant region H57-597; full-length chains on transfected CHO cells; also called TCR No. 46
B10: PN45593 (TCR, V domains shown)
V domain 1: AQKITQTQPGMFVQEKEAVTLDCTYDTSDPSYGLFWYKQPSSGEMIFLIYQGSYDQQNATEGRYSLNFQKARKSANLVISASQLGDSAMYFCAMREGPGNNARLMFGDGTQLVVKP
V domain 2: NAGVTQTPKFRVLKTGQSMTLLCAQDMNHEYMYWYRQDPGMGLRLIHYSVGEGTTAKGEVPDGYNVSRLKKQNFLLGLESAAPSQTSVYFCASSYWDRGSPLHFGNGTRLTVT
notes: stained with anti-mouse TCR constant region H57-597; full-length chains on transfected CHO cells; also called TCR No. 40
B11: PN45581 (TCR, V domains shown)
V domain 1: B10 V domain 1
V domain 2: EAQVTQTPRYLITVTGKKLTVTCSQNMNHEYMSWYRQDPGLGLRQIYYSMNVEVTDKGDVPEGYKVSRKEKRNFPLILESPSPNQTSLYFCASSLWTGGGYTFGSGTRLTVV
notes: stained with anti-mouse TCR constant region H57-597; full-length chains on transfected CHO cells; also called TCR No. 44
B12: PN45515 (TCR, V domains shown)
V domain 1: DAKTTQPPSMDCAEGRAANLPCNHSTISGNEYVYWYRQIHSQGPQYIIHGLKNNETNEMASLIITEDRKSSTLILPHATLRDTAVYYCIVRPYNAGNNRKLIWGLGTSLAVNP
V domain 2: DVKVTQSSRYLVKRTGEKVFLECVQDMDHENMFWYRQDPGLGLRLIYFSYDVKMKEKGDIPEGYSVSREKKERFSLILESASTNQTSMYLCASSFGGGYYGYTFGSGTRLTVV
notes: stained with anti-mouse TCR constant region H57-597; full-length chains on transfected CHO cells; also called TCR No. 39
B13: PN45489 (TCR, V domains shown)
V domain 1: TQLLEQSPQFLSIQEGENLTVYCNSSSVFSSLQWYRQEPGEGPVLLVTVVTGGEVKKLKRLTFQFGDARKDSSLHITAAQPGDTGLYLCAEDGGSQGNLIFGKGTKLSVKP
V domain 2: B12 V domain 2 with S7T, F95L, G96Q, G98R
notes: stained with anti-mouse TCR constant region H57-597; full-length chains on transfected CHO cells; also called TCR No. 48
B14: PN45539 (TCR, V domains shown)
V domain 1: B12 V domain 1
V domain 2: B12 V domain 2 with G96E
notes: stained with anti-mouse TCR constant region H57-597; full-length chains on transfected CHO cells; also called TCR No. 41
B15: PN45557 (TCR, V domains shown)
V domain 1: AQKITQTQPGMFVQEKEAVTLDCTYDTSDPSYGLFWYKQPSSGEMIFLIYQGSYDQQNATEGRYSLNFQKARKSANLVISASQLGDSAMYFCAMREGPGSGNTGKLIFGQGTTLQVKP
V domain 2: NAGVTQTPKFRILKIGQSMTLQCAQDMNHNYMYWYRQDPGMGLKLIYYSVGAGITDKGEVPNGYNVSRSTTEYFPLRLELAAPSQTSVYFCASSYSEWQNYGYTFGSGTRLTVV
notes: full-length chains on transfected CHO cells; also called TCR No. 52
B16: PN45584 (TCR, V domains shown)
V domain 1: B15 V domain 1 with Q56E
V domain 2: B15 V domain 2
notes: stained with anti-mouse TCR constant region H57-597; full-length chains on transfected CHO cells; also called TCR No. 43

Target: T4, soluble HLA-A2 (…) tetramer (human)
T4 construct: Bought tetramer reagent; also called MAGE-A4/HLA tetramer reagent; HLA-A02:01 MAGE-A4 tetramer
Experiment: flow cytometry, HLA-A2 (…) tetramer staining of CHO cells transfected with the TCR
Method: Samples were then analyzed on an LSRFortessa X-20 (BD Biosciences, San Jose, Calif.).

Binder | % in Ag+ gate >250 MFI, >1%
B1 | 85.4%
B2 | 10.9%
B3 | 8.76%
B4 | 7.83%
B5 | 58.7%
B6 | 20.7%
B7 | 9.56%
B8 | 92.2%

Target: T5, soluble HLA-A2 MAGE-A4 (…) tetramer (human)
T5 construct: Bought tetramer reagent; also called MAGE-A4/HLA tetramer reagent; HLA-A02:01 MAGE-A4 tetramer
Experiment: flow cytometry tetramer staining; % with MAGE-A4 tetramer divided by % with MAGE-A8 tetramer (reference)
Method: (§1) Samples were then analyzed on an LSRFortessa X-20 (BD Biosciences, San Jose, Calif.). […] However, a more stringent cutoff, such as 3%, could be used to separate out Ag+ TCRs that behave better in the binding assay. Ag+ TCRs were determined by Next Generation Sequencing.

Binder | MAGE-A4/MAGE-A8 (ratio of % tetramer in Ag+ gate)
B9 | 9.92
B10 | 991
B11 | 18.7
B12 | 1150
B13 | 2.5
B14 | 498
B15 | 1.43

Target: T5, soluble HLA-A2 MAGE-A4 (…) tetramer
Experiment: flow cytometry, HLA-A2 MAGE-A4 (…) tetramer staining of CHO cells transfected with the TCR
Method: as §1

Binder | % tetramer in Ag+ gate (MAGE-A4)
B9 | 12.3%
B10 | 56.5%
B11 | 3.18%
B12 | 11.5%
B13 | 16%
B14 | 59.8%
B16 | 69.1%
B15 | 94.7%

Target: T1, MAGE-A8 peptide on HLA-A*02:01
Experiment: multimer staining

Binder | binding result
B12 | no recognition
B13 | recognises
B15 | recognises

Target: T2, MAGE-A4 peptide on HLA-A*02:01
Experiment: multimer staining

Binder | binding result
B1 | recognises
B2 | recognises
B3 | recognises
B4 | recognises
B5 | recognises
B6 | recognises
B7 | recognises
B8 | recognises

Target: T3, MAGE-A4 peptide on HLA-A*02:01
Experiment: multimer staining

Binder | binding result
B9 | recognises
B10 | recognises
B11 | recognises
B12 | recognises
B13 | recognises
B14 | recognises
B16 | recognises
B15 | recognises

Target: T6, soluble HLA-A2 MAGE-A8 (…) tetramer (human)
T6 construct: Bought tetramer reagent; also called MAGE-A8/HLA tetramer reagent; HLA-A02:01 MAGE-A8 tetramer
Experiment: flow cytometry, HLA-A2 MAGE-A8 (…) tetramer staining of CHO cells transfected with the TCR
Method: as §1

Binder | % tetramer in Ag+ gate (MAGE-A8)
B9 | 1.24%
B13 | 6.39%
B15 | 66.3%

— patent publication US20220324939A1 (Regeneron, published 2022)
